Reference: US5759768A, “Assays for factors affecting circularization of DNA, assays for factors affecting DNA integration, factors, and uses thereof” (priority 1995, dated 1998)

B1: Proteinase K: an enzyme such as proteinase K (protein, UniProt P06873 106-384, looked up)
Proteinase K: AAQTNAPWGLARISSTSPGTSTYYYDESAGQGSCVYVIDTGIEASHPEFEGRAQMVKTYYYSSRDGNGHGTHCAGTVGSRTYGVAKKTQLFGVKVLDDNGSGQYSTIIAGMDFVASDKNNRNCPKGVVASLSLGGGYSSSVNSAAARLQSSGVMVAVAAGNNNADARNYSPASEPSVCTVGASDRYDRRSSFSNYGSVLDIFGPGTSILSTWIGGSTRSISGTSMATPHVAGLAAYLMTLGKTTAASACRYIADTANKGDLSNIPFGTVNLLAYNNYQA
B2: RNase A: RNase A (protein, UniProt P61823 27-150, looked up)
Ribonuclease pancreatic: KETAAAKFERQHMDSSTSAASSSNYCNQMMKSRNLTKDRCKPVNTFVHESLADVQAVCSQKNVACKNGQTNCYQSYSTMSITDCRETGSSKYPNCAYKTTQANKHIIVACEGNPYVPVHFDASV
B3: T4 DNA ligase: phage T4 ligase (protein, UniProt P00970 1-487, looked up)
DNA ligase: MILKILNEIASIGSTKQKQAILEKNKDNELLKRVYRLTYSRGLQYYIKKWPKPGIATQSFGMLTLTDMLDFIEFTLATRKLTGNAAIEELTGYITDGKKDDVEVLRRVMMRDLECGASVSIANKVWPGLIPEQPQMLASSYDEKGINKNIKFPAFAQLKADGARCFAEVRGDELDDVRLLSRAGNEYLGLDLLKEELIKMTAEARQIHPEGVLIDGELVYHEQVKKEPEGLDFLFDAYPENSKAKEFAEVAESRTASNGIANKSLKGTISEKEAQCMKFQVWDYVPLVEIYSLPAFRLKYDVRFSKLEQMTSGYDKVILIENQVVNNLDEAKVIYKKYIDQGLEGIILKNIDGLWENARSKNLYKFKEVIDVDLKIVGIYPHRKDPTKAGGFILESECGKIKVNAGSGLKDKAGVKSHELDRTRIMENQNYYIGKILECECNGWLKSDGRTDYVKLFLPIAIRLREDKTKANTFEDVFGDFHEVTGL

Columns and labels:
Format in all cases: biochemical, HIV-1
preintegration complexes = assay: Circularization mediated by partially purified preintegration complexes; conditions: pretreatment of uninfected SupT1 extracts
Experimental: Viral preintegration complexes were partially purified from cytoplasmic extracts by Sephacryl S400 gel filtration chromatography. Cytoplasmic extracts (0.8 ml) were loaded onto a 22-ml Sephacryl S400 (Pharmacia) column, 28 cm in height, equilibrated in buffer K containing 0.5% Triton X-100 at 4° C. Fractions (0.5 ml) were collected at a flow rate of approximately 0.2 ml/min.
The linear viral DNA present in cytoplasmic extracts is a part of the nucleoprotein preintegration complex that can be separated from the bulk of cellular proteins by gel filtration chromatography [Farnet and Haseltine, J. Virol., 65: 1910-1915 (1991)]. Preintegration complexes were partially purified by Sephacryl S400 column chromatography and tested for the ability to mediate the circularization of viral DNA. Cytoplasmic extracts (1 ml, vol) were fractionated by Sephacryl S-400 gel filtration chromatography as previously described. The void volume fractions of the column, containing the peak of viral DNA, were pooled (total volume, 1.5 ml) and incubated as follows with the results shown in FIG. 20. […]

[1] = test system: linear viral DNA (circularization); conditions: pretreatment for 30 minutes prior to addition of ATP
Experimental: (§1) The chronically HIV-1 infected Molt IIIB human T cell line (HTLV IIIB virus strain) was the source of virus for cell-free infections. This human T cell line constitutively produces a low level of the HTLV-111B strain of HIV-1. Culture supernatant containing a high concentration of virus was prepared by incubating 300×10^6 Molt IIIB cells in 50 ml fresh RPMI 1640 medium containing 20% fetal calf serum and 10 ng of phorbol 12-myristate 13-acetate per ml for 20-24 hours. […] Cytoplasmic extracts (3 ml) were prepared 4-4.5 hours post-infection, by a modification of the procedure of Brown et al., Cell 49: 342-356 (1987).
At specified times after infection, cells were washed twice with buffer K (20 mM Hepes, pH 7.4, 150 mM KCl, 5 mM MgCl2, 1 mM dithiothreitol, […]) and then lysed at a concentration of 33×10^6 cells per ml in the same buffer containing 0.025% digitonin or 0.025% Triton X-100. Cells were extracted for 10 minutes at room temperature, and the lysate was centrifuged at 1000×g for 3 minutes, and is referred to as "cytoplasmic extract". Cytoplasmic extract was the source of viral DNA for analyses in the assays described below. […]
Cell extracts were prepared from cells four to five hours after infection with HIV-1, using the above-described methods to yield fully functional viral preintegration complexes. […] Therefore, only LTR-containing DNA fragments are detected. […]

[2] = test system: viral DNA integrated into .phi.X174 target DNA; conditions: for Relative activity, % of standard: pretreatment/37° C./30 min, target DNA 10 μg/ml
Experimental: as §1
At specified times after infection, cells were washed twice with buffer K (20 mM Hepes, pH 7.4, 150 mM KCl, 5 mM MgCl2, 1 mM dithiothreitol, […]) and then lysed at a concentration of 33×10^6 cells per ml in the same buffer containing 0.025% digitonin or 0.025% Triton X-100. Cells were extracted for 10 minutes at room temperature, and the lysate was centrifuged at 1000×g for 3 minutes, and is referred to as "cytoplasmic extract". Cytoplasmic extract was the source of viral DNA for analyses in the assays described below. The pellet from the initial low-speed centrifugation contained cell debris and intact nuclei and is called the "nuclear pellet". Cell extracts from uninfected SupT1 cells were prepared in the same manner.
DNA samples were layered on 0.8% agarose gels and electrophoresed at 1 V/cm for 15 hour in Tris/acetate/EDTA buffer. After electrophoresis, DNA was blotted by capillary action onto nitrocellulose (0.45 μm, Schleicher & Schuell). […]
Cytoplasmic extracts prepared from SupT1 cells 4 hours after infection with HIV-1 were incubated with exogenously added target DNA under integration reaction conditions. Products of the reactions were analyzed by Southern blot hybridization. The time course of integration into linear .phi.X174 DNA target was determined. […] Integration was detected by the shift of linear viral DNA on Southern blots from the characteristic 9.7-kilobase (kb) position to a position corresponding to viral DNA plus target DNA.

[3] = test system: purified linear viral DNA; assay: Ligation of purified linear viral DNA by phage T4 DNA ligase and Klenow fragment; conditions: T4 DNA ligase alone
Experimental: Linear viral DNA was purified from cytoplasmic extracts of cells 4 hours post-infection as described above. In FIG. 22, a purified linear viral DNA was added to cytoplasmic extracts from uninfected SupT1 cells and incubated at 37° C. for 45 minutes. The uninfected SupT1 cells used for the preparation of extracts were either untreated (lanes 3-11) or cultured in the presence of 10 ng/ml phorbol 12-myristate 13-acetate for six hours prior to extraction (lane 2). […] Lanes 2-11: reaction products following incubation of purified linear viral DNA in uninfected extracts containing 1 mM ATP (lanes 2 and 3), nothing added (lane 4), 1 mM dATP (lane 5), 1 mM UTP (lane 6), 1 mM CTP (lane 7), 1 mM GTP (lane 8), 1 mM ATPγS (lane 9), or 1 mM ADP (lane 10). Lane 11: uninfected SupT1 cell extract was treated with proteinase K for 10 minutes at 37° C., then linear viral DNA was added and incubation continued for 45 minutes. In FIG. 23, lanes 1, 2, 4 and 5: purified linear viral DNA was incubated with T4 DNA ligase (lane 1), T4 polynucleotide kinase and T4 DNA ligase (lane 2), Klenow fragment of E. coli DNA polymerase I and T4 DNA ligase (lane 3), or Klenow fragment, T4 polynucleotide kinase, and T4 DNA ligase (lane 4). Lanes 3 and 6: in vitro circularization reaction products generated in cell extracts, included as size standards. […]

Molecule | ability of uninfected extracts to restore 1-LTR and simple 2-LTR circle formation (preintegration complexes) | circle formation [1] | integration in vitro ([2]; pretreatment of extracts prior to incubation with target DNA) | Relative activity, % of standard [2] | ligation of the ends of linear viral DNA [3]
B1 | abolished the ability of the extracts to restore 1-LTR and simple 2-LTR circle formation | abolished circle formation | abolished integration in vitro | 0 % of standard | –
B2 | – | – | – | 100 % of standard | –
B3 | – | – | – | – | unable to ligate the ends of the linear DNA molecules
